The record followed here is US20250262210A1 (TRUSTEES OF COLUMBIA UNIVERSITY IN THE CITY OF NEW YORK, published 2025).

Assay [1] addresses IFT172 (human, UniProt Q9UG01 1-1749, limits assumed). The assay is described as follows: IP/MS, LZTR1 wild type-FLAG, U87. An outline of the steps:
(§1)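 Extracted peptides in 3% acetonitrile/0.1% formic acid ran on a 50 cm C18 column into an Orbitrap Fusion, with MaxQuant identification and spectral counting.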

Assay [2] has as its target T1, TRAPPC11 (human, UniProt Q7Z392 1-1133, limits assumed).
T1 sequence (looked up): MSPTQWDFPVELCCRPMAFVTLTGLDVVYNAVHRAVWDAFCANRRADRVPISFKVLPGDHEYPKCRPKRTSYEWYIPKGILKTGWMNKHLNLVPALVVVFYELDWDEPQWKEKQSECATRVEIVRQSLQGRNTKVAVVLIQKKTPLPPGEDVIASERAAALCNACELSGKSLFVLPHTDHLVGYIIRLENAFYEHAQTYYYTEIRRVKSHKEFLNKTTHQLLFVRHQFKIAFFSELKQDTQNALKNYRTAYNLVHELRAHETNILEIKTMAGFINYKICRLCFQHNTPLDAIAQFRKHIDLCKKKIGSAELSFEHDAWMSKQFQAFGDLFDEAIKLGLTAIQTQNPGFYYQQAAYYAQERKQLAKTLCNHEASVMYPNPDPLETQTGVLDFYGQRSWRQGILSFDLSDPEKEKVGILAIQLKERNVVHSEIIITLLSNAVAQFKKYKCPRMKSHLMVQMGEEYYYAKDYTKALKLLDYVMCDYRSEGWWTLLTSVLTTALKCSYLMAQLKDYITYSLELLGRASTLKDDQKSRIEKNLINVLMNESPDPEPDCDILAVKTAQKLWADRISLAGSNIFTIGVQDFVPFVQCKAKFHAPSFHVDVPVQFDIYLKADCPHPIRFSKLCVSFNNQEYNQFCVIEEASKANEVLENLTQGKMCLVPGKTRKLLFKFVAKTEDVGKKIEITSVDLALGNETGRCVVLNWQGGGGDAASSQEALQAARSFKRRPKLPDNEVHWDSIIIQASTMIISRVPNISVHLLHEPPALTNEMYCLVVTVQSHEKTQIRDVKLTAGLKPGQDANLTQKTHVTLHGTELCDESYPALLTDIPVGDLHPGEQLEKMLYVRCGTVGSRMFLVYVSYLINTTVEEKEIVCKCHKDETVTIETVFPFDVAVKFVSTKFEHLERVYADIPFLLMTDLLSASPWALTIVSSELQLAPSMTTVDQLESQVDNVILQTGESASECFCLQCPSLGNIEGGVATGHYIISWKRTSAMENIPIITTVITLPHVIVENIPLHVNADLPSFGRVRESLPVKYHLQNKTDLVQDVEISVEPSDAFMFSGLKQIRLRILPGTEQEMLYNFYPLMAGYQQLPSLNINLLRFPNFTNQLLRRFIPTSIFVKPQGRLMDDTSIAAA
The assay is described as follows: IP/MS, LZTR1 wild type-FLAG, U87. An outline of the steps: as §1

IFT172, sequence (Q9UG01 whole entry, the tested form may be a part): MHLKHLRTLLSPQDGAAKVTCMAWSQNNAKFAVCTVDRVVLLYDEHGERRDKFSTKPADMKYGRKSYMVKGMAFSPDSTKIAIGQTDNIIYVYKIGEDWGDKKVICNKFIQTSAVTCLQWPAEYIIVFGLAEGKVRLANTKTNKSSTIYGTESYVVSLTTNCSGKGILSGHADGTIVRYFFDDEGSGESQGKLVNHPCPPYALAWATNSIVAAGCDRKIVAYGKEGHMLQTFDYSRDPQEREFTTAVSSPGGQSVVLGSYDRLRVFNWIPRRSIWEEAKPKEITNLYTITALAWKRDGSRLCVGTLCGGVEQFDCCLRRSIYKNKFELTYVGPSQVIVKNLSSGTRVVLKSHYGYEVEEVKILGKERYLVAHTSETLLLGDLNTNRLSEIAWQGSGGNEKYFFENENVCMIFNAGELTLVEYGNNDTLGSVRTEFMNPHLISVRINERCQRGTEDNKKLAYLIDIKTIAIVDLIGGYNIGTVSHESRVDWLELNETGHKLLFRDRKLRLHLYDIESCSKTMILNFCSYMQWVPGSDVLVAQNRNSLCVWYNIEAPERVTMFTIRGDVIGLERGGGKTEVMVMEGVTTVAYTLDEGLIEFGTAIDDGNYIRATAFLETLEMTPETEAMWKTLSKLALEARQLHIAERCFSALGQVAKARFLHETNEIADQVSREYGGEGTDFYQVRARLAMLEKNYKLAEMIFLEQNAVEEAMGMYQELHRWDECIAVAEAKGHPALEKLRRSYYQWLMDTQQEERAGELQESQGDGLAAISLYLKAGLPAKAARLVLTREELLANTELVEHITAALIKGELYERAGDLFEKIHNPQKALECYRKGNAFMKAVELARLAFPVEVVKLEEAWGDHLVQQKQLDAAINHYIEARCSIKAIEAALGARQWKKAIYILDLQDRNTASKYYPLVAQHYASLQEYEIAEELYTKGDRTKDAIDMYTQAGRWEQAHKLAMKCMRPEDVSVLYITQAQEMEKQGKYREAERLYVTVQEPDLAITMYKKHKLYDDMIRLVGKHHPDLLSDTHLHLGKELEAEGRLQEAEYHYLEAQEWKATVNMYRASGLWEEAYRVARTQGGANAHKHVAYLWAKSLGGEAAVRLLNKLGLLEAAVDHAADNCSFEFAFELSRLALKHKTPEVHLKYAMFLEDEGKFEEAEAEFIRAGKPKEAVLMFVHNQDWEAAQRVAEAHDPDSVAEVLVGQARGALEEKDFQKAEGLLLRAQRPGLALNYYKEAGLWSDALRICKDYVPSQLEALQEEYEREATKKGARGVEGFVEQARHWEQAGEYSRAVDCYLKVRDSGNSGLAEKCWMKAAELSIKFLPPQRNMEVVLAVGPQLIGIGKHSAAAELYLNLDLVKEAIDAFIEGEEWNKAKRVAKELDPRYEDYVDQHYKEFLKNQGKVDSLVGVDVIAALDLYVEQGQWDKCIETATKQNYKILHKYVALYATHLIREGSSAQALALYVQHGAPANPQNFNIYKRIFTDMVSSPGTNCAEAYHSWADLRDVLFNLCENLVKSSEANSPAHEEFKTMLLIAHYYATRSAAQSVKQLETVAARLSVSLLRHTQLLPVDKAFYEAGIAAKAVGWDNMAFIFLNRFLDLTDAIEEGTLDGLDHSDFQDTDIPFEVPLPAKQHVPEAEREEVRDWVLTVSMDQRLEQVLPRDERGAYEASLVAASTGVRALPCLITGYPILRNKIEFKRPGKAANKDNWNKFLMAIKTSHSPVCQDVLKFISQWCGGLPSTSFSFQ

B1: LZTR1-FLAG (other, human, UniProt Q8N653 1-840, looked up)
chain: MAGPGSTGGQIGAAALAGGARSKVAPSVDFDHSCSDSVEYLTLNFGPFETVHRWRRLPPCDEFVGARRSKHTVVAYKDAIYVFGGDNGKTMLNDLLRFDVKDCSWCRAFTTGTPPAPRYHHSAVVYGSSMFVFGGYTGDIYSNSNLKNKNDLFEYKFATGQWTEWKIEGRLPVARSAHGATVYSDKLWIFAGYDGNARLNDMWTIGLQDRELTCWEEVAQSGEIPPSCCNFPVAVCRDKMFVFSGQSGAKITNNLFQFEFKDKTWTRIPTEHLLRGSPPPPQRRYGHTMVAFDRHLYVFGGAADNTLPNELHCYDVDFQTWEVVQPSSDSEVGGAEVPERACASEEVPTLTYEERVGFKKSRDVFGLDFGTTSAKQPTQPASELPSGRLFHAAAVISDAMYIFGGTVDNNIRSGEMYRFQFSCYPKCTLHEDYGRLWESRQFCDVEFVLGEKEECVQGHVAIVTARSRWLRRKITQARERLAQKLEQEAAPVPREAPGVAAGGARPPLLHVAIREAEARPFEVLMQFLYTDKIKYPRKGHVEDVLLIMDVYKLALSFQLCRLEQLCRQYIEASVDLQNVLVVCESAARLQLSQLKEHCLNFVVKESHFNQVIMMKEFERLSSPLIVEIVRRKQQPPPRTPLDQPVDIGTSLIQDMKAYLEGAGAEFCDITLLLDGHPRPAHKAILAARSSYFEAMFRSFMPEDGQVNISIGEMVPSRQAFESMLRYIYYGEVNMPPEDSLYLFAAPYYYGFYNNRLQAYCKQNLEMNVTVQNVLQILEAADKTQALDMKRHCLHIIVHQFTKVSKLPTLRSLSQQLLLDIIDSLASHISDKQCAELGADI
notes: Expressed in HEK 293T, HeLa or U87 cells; used as cell lysate; also called LZTR1 wild type-FLAG; LZTR1 WT; not shown: FLAG tag at the C-terminus
As for B1, the binding result in assay [1] and in assay [2] was “binds” in each case.
